Literature values, collected in publication PMC3082522.

Target: filamentous actin (Oryctolagus cuniculus) (UniProt P68135)

With espin (from UniProt Q63618) as the substance, how does the Kd read?
The Kd was 220 nM.
